From patent US8722052B2, “Vaccinia virus protein A46 peptide and use thereof” (priority 2008, dated 2014)
Entries after “also recorded” stand apart in the source; their conditions may differ.

Target: T1, TLR3 (Homo sapiens, UniProt O15455)
T1 construct: expressed in transfected cells
Experiment: poly(I:C)-induced NFκB / ISRE luciferase reporter assay in HEK293_TLR3 cells
Type: cell-based
Settings: peptide 2, 5 or 10 μM, 25 μg/ml poly(I:C), 6 h
Procedure: FIGS. 11A and B are bar charts showing the effect of A464 and scrambled A464 (ConA464) on poly(I:C)-induced TLR3 signalling in HEK293 cells. HEK293_TLR3 cells were seeded in 96 well plates (1.5×10^5 cells/ml) 24 hours before transfection with the plasmid DNA. Cells were transfected with 60 ng of either ISRE-Luciferase (A) or NFκB-Luciferase (B) and 20 ng of TK-Renilla reporter gene plasmids. The total volume of plasmid DNA transfected into the cells was made up to 230 ng by adding pcDNA.
Scrambled A464 (ConA464) (SEQ ID NO. 32) and A464 (SEQ ID NO. 20) peptides were added to the cells at a concentration of 2, 5 or 10 μM the next day and cells were stimulated with 25 μg/ml poly(I:C) 1 hour after treatment with the peptide. Cells were harvested and reporter gene assays performed 6 hr after stimulation with the agonist. No peptides were added to the control wells (black bars). Data is representative of at least three experiments each performed in triplicate. Data are expressed as mean fold induction±s.d. relative to control levels;
FIGS. 20A and B are bar charts showing the effect of shortened A464 peptides with deletions of N- and C-terminal amino acids on TLR4- and TLR3-induced NFκB activation in HEK293 cells. HEK293_TLR4 (A) and HEK293_TLR3 (B) cells were seeded in 96 well plates (1.5×10^5 cells/ml) 24 hours before transfection with the plasmid DNA. Cells were transfected with 60 ng NFκB-Luciferase and 20 ng of TK-Renilla reporter genes, as in FIG. 11. A464N-2 (SEQ ID NO. 41) and A464C-3 (SEQ ID NO. 42) peptides were added to the cells at a concentration of 1, 5 or 25 μM the next day and cells were stimulated with either 10 ng/ml LPS (A) or 25 μg/ml Poly(I:C) (B) 1 hour after treatment with peptides. Cells were harvested and assayed for NFκB activation by reporter gene assay 6 hours after stimulation with the agonists. No peptides were added to the control wells (black bars). Data is representative of three experiments each performed in triplicate and is expressed as mean fold induction±s.d. relative to control levels;
HEK293 cells were transfected using GeneJuice® a proprietary non-toxic transfection reagent. 200 μl/well cells at a density of 1×10^5 cells/ml were seeded the day before transfection. 0.8 μl of GeneJuice was mixed with 9.2 μl of serum-free DMEM (SFM) per transfection and incubated for 5 min at room temperature before adding the appropriate amount of the plasmid DNA. The GeneJuice/SFM/DNA mixture was then incubated at room temperature for 15 min before adding to the cells. 10 μl per well of the GeneJuice/SMF/DNA mixture was added to the cells in triplicate and the cells were allowed to recover for 18-20 hours before stimulation. […]

KYSFKLILAEYRRRRRRRRR [Peptide A464]
inhibition of TLR3-mediated ISRE induction: slightly enhanced; also recorded: insensitive to inhibition | inhibition of TLR3-mediated NFκB activation: insensitive to inhibition; also recorded: slightly enhanced
